Experimental data from PMC2571106 (BMC Microbiology, 2008).

B1: rSlpA_(146-435) (domain or fragment, Lactobacillus brevis ATCC 8287, UniProt Q05044 176-465, looked up)
chain: LYGVAKDTKFTVDQAATKTREGSLYYHVTATNGSGISGWIYAGKGFSTTATGTQVLGGLSTDKSVTATNDNSVKIVYRTTDGTQVGSNTWVTSTDGTKAGSKVSDKAADQTALEAYINANKPSGYTVTNPNAADATYGNTVYATVSQAATSKVALKVSGTPVTTALTTADANDKVAANDTTANGSSVAGSTVYAAGTKLAQLTTDLTGEKGQVVTLTAIDTDLEDATFTGTTTYYSDLGKAYHYTYTYNKDSAASSNASTQFGSNVTGTLTATLVMGKSTATANGTTWFN
notes: numbers count on: the mature protein; Cloned through an NcoI site; the primer may add residues at the N-terminus (surmise from primer 1602); source: E. coli BL21(DE3), purified (His Trap HP in 4 M GHCl or 6 M urea)
B2: full length recombinant SlpA (SlpA 1-435), S-layer protein of Lactobacillus brevis ATCC 8287 (natural protein, UniProt Q05044 31-465, looked up)
chain: KSYATAGAYSTLKTDAATRNVEATGTNALYTKPGTVKGAKVVASKATMAKLASSKKSADYFRAYGVKTTNRGSVYYRVVTMDGKYRGYVYGGKSDTAFAGGIKSAETTTKADMPARTTGFYLTDTSKNTLWTAPKYTQYKASKVSLYGVAKDTKFTVDQAATKTREGSLYYHVTATNGSGISGWIYAGKGFSTTATGTQVLGGLSTDKSVTATNDNSVKIVYRTTDGTQVGSNTWVTSTDGTKAGSKVSDKAADQTALEAYINANKPSGYTVTNPNAADATYGNTVYATVSQAATSKVALKVSGTPVTTALTTADANDKVAANDTTANGSSVAGSTVYAAGTKLAQLTTDLTGEKGQVVTLTAIDTDLEDATFTGTTTYYSDLGKAYHYTYTYNKDSAASSNASTQFGSNVTGTLTATLVMGKSTATANGTTWFN
notes: numbers count on: the mature protein; Two full length constructs were made: pKTH5198 (C-terminal linker-His6) and pKTH5199 (N-terminal His6-linker); no cleavage is mentioned; also called rSlpA; nontruncated rSlpA; source: E. coli BL21(DE3), purified (His Trap HP in 4 M GHCl or 6 M urea)
B3: wild type SlpA isolated from L. brevis ATCC 8287 cells (natural protein, Lactobacillus brevis ATCC 8287, UniProt Q05044 31-465, looked up)
chain: KSYATAGAYSTLKTDAATRNVEATGTNALYTKPGTVKGAKVVASKATMAKLASSKKSADYFRAYGVKTTNRGSVYYRVVTMDGKYRGYVYGGKSDTAFAGGIKSAETTTKADMPARTTGFYLTDTSKNTLWTAPKYTQYKASKVSLYGVAKDTKFTVDQAATKTREGSLYYHVTATNGSGISGWIYAGKGFSTTATGTQVLGGLSTDKSVTATNDNSVKIVYRTTDGTQVGSNTWVTSTDGTKAGSKVSDKAADQTALEAYINANKPSGYTVTNPNAADATYGNTVYATVSQAATSKVALKVSGTPVTTALTTADANDKVAANDTTANGSSVAGSTVYAAGTKLAQLTTDLTGEKGQVVTLTAIDTDLEDATFTGTTTYYSDLGKAYHYTYTYNKDSAASSNASTQFGSNVTGTLTATLVMGKSTATANGTTWFN
notes: numbers count on: the mature protein; source: extracted from L. brevis ATCC 8287 cells with 2 M GHCl, dialysed
B4: rSlpA_(179-435) (domain or fragment, Lactobacillus brevis ATCC 8287, UniProt Q05044 209-465, looked up)
chain: SGISGWIYAGKGFSTTATGTQVLGGLSTDKSVTATNDNSVKIVYRTTDGTQVGSNTWVTSTDGTKAGSKVSDKAADQTALEAYINANKPSGYTVTNPNAADATYGNTVYATVSQAATSKVALKVSGTPVTTALTTADANDKVAANDTTANGSSVAGSTVYAAGTKLAQLTTDLTGEKGQVVTLTAIDTDLEDATFTGTTTYYSDLGKAYHYTYTYNKDSAASSNASTQFGSNVTGTLTATLVMGKSTATANGTTWFN
notes: numbers count on: the mature protein; also called rSlpA C-terminal domain; source: E. coli BL21(DE3), purified (His Trap HP in 4 M GHCl or 6 M urea)

Tests used:
[1] = target: the molecule itself; test: precipitation after dialysis from GHCl (self-assembly test); affinity purified protein dissolved in 5 M GHCl at 1 mg/ml, dialysed against PBS for two hours at 4°C, centrifuged 16,000 x g 30 min, precipitate checked by SDS-PAGE
[2] = target: the molecule itself; test: transmission electron microscopy of self-assembly products (negative stain); 1 mg purified, lyophilised recombinant protein in 1 ml 5 M GHCl, 50 mM Tris-HCl pH 7.2, dialysed against 10 mM CaCl2 in distilled water for 18 h; negative stain with 2,5% uranyl acetate
[3] = target: the molecule itself; test: transmission electron microscopy of self-assembly products (negative stain); SlpA extracted from L. brevis cells with 2 M GHCl, 1 mg/ml, dialysed against water with 5 mM CaCl2 and then water at +4°C; pelleted self-assembly products in 25 mM Tris-HCl pH 8.0

Protein	binding result [1]	also measured
B1	binds	
B2		binding result [2]: binds
B3		binding result [3]: binds
B4	binds	
